The target of assay [1] is T1, recombinant human Tie1-Fc (Homo sapiens, UniProt P35590).
T1 construct: selected against the Tie1 extracellular domain fused to human Fc or to a histidine purification tag
T1 sequence (P35590 22-759 limits assumed): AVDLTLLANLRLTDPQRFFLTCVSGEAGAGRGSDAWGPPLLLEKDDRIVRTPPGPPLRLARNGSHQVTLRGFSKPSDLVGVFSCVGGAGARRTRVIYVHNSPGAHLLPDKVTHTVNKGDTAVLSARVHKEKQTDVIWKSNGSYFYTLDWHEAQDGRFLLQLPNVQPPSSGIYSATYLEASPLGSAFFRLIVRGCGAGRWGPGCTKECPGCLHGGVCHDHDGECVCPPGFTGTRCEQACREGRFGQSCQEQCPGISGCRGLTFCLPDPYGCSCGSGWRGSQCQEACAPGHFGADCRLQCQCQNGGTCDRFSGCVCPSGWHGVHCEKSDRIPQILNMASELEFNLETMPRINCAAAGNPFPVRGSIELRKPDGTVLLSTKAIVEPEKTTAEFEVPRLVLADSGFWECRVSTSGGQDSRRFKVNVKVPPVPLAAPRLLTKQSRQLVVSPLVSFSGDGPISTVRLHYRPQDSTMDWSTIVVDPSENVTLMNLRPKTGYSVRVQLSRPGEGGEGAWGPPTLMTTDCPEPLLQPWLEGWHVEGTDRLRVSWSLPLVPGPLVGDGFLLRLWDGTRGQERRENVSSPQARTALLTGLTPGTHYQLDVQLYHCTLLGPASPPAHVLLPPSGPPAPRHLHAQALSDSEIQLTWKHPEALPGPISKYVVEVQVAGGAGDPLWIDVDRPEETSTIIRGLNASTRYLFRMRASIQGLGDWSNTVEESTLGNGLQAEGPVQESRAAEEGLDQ
Description: BIAcore, parental and germlined E3b Fabs on human Tie-1/Fc. The class given is binding. Conditions: parental and germlined E3b Fabs, human Tie-1/Fc. The procedure: Recombinant human Tie-1/Fc was coated on a CM5 chip. The surface of the chip was first activated with a 7-minute pulse of 0.05 M NHS/0.2 M EDC, then Tie-1/Fc (2 μg/ml in 10 mM sodium acetate, pH 4.0) was run over the chip surface until 750 RUs were coated on the surface. All flow cells were subsequently deactivated with a 7-minute pulse of 1 M ethanolamine hydrochloride, pH 8.5. All further experiments were performed in HBS buffer.
The parental and the germlined E3b Fabs were prepared. A series of dilution (50, 25, 12.5, 6.25 and 3.125 nM) was prepared in HBS buffer. Samples were injected at 30 μl/min for 5.3 minutes using the KINJECT™ program. This was followed by a 10-minute dissociation phase, and the remaining Fab was stripped from the surface with a single 18-sec injection of 50 mM NaOH/1 M NaCl.
Sensorgrams were analyzed using the simultaneous ka/kd fitting program from the BIAEVALUATION™ software 3.1 assuming a 1:1 model.
(Surface plasmon resonance follows binding to a sensor surface in real time, without labels.)

Assay [2] concerns the target Tie1 (Homo sapiens, UniProt P35590). Description: Tie1 phosphorylation assay in HDMVECs. The class given is cell-based. The procedure: COS1 cells were transfected with pcDNA3-Tie1-V5. After 24 h of transfection, the cells were serum starved for 8 h and then treated with E3 IgG. For the Tie1 phosphorylation assay, HDMVECs were cultured on 10 cm dishes to near confluence, starved (8-16 h) in serum free medium and stimulated as indicated. After the stimulations, the cells were lysed in lysis buffer (RIPA-DOC: 50 mM Tris-HCl pH 8.0, 150 mM NaCl, 1% Triton-X-100, 0.1% SDS, 0.5% DOC, 10 mM EDTA, supplemented with aprotinin, leupeptin, PMSF and sodium vanadate). Clarified lysates from transfected COS1 cells or HDMVECs were immunoprecipitated with anti-V5 or anti-Tie1 B9, respectively. Proteins were separated by SDS-PAGE, transferred to nitrocellulose and immunoblotted using the anti-phosphotyrosine and anti-Tie1 (R&D systems) antibodies.
To test if the E3 IgG binding to the extracellular region of Tie1 induces autophosphorylation of Tie1, the Tie1 receptor phosphorylation level in response to E3 IgG treatment was studied in transiently transfected COS1 cells and human primary endothelial cells. COS1 cells were transfected with an expression vector containing a V5-tagged full length Tie1 cDNA, and, after serum starvation, the cells were treated with E3 IgG (200 ng/ml). Cell lysates were extracted at several time points and Tie1 was immunoprecipitated with anti-V5 followed by western blotting using anti-phosphotyrosine and anti-Tie1 antibodies. […] To determine if E3 IgG induces Tie1 phosphorylation in primary endothelial cells, HDMVEC cells were serum starved and stimulated with several concentrations of E3 for 60 min. […] Also higher concentrations of E3 (500-1000 ng/ml) induced Tie1 phosphorylation but the response was more rapid and was most prominent after 5 min of stimulation.
To study the kinetics of E3 IgG induced Tie1 activation, cells were stimulated with E3 IgG (200 ng/ml) and receptor phosphorylation was studied at various time points. Tie1 phosphorylation was highest 15-30 min after E3 IgG treatment but phosphorylation persisted for up to 1 h.

The subject of assay [3] is bFGF-induced angiogenesis. Description: […] plug assay, bFGF-induced angiogenesis in NMRI nu/nu mice. The class given is in vivo, mouse. The procedure:
The germlined variant of the E3 IgG antibody was evaluated in an in vivo assay for angiogenesis induced by bFGF in […]™ plugs. Growth factor reduced […]™ (BD Biosciences, catalog # 354230) was supplemented with 80 ng/ml of bFGF (R&D Systems, catalog #234-FSE). The A2-SV or an IgG4 E3 antibody (10 μg/ml) or PBS was injected subcutaneously into the abdominal area of NMRI nu/nu mice (150 μl of Matrigel/plug).
In the first assay, two mice were injected with […]™ supplemented with bFGF and soluble VEGFR-1 (10 μg/ml) as a positive control for an angiogenic inhibitor. At day 7 post-implantation mice were anesthetized and perfused through heart with 4% paraformaldehyde (PFA) in phosphate buffered saline (PBS). […]™ plugs and a piece of liver were removed and embedded in paraffin. Sections were cut and stained with hematoxylin and eosin (H&E).
In a second assay, mice were treated as described above, and then anesthetized eight days post-implantation and injected with fluorescein-conjugated tomato (lycopersicon esculentum) lectin (100 μg in 200 μl of PBS; Vector, catalog #FL-1171) into the tail vein. After five min circulation the animals were perfused through the heart with 10 ml of PBS followed by 10 ml of 4% PFA in PBS. […]™ plugs and pieces of kidney and liver were removed and frozen in OCT (Tissue-Tek). Nuclei were visualized on sections by using […]® mounting medium containing DAPI (Vector) and analyzed under fluorescence microscopy.

Experimental findings from patent US7871610B2, “Antibodies to Tie1 ectodomain” (Dyax Corp., priority 2003, dated 2011) are described below.

Sequence of Tie1 (P35590 22-1138): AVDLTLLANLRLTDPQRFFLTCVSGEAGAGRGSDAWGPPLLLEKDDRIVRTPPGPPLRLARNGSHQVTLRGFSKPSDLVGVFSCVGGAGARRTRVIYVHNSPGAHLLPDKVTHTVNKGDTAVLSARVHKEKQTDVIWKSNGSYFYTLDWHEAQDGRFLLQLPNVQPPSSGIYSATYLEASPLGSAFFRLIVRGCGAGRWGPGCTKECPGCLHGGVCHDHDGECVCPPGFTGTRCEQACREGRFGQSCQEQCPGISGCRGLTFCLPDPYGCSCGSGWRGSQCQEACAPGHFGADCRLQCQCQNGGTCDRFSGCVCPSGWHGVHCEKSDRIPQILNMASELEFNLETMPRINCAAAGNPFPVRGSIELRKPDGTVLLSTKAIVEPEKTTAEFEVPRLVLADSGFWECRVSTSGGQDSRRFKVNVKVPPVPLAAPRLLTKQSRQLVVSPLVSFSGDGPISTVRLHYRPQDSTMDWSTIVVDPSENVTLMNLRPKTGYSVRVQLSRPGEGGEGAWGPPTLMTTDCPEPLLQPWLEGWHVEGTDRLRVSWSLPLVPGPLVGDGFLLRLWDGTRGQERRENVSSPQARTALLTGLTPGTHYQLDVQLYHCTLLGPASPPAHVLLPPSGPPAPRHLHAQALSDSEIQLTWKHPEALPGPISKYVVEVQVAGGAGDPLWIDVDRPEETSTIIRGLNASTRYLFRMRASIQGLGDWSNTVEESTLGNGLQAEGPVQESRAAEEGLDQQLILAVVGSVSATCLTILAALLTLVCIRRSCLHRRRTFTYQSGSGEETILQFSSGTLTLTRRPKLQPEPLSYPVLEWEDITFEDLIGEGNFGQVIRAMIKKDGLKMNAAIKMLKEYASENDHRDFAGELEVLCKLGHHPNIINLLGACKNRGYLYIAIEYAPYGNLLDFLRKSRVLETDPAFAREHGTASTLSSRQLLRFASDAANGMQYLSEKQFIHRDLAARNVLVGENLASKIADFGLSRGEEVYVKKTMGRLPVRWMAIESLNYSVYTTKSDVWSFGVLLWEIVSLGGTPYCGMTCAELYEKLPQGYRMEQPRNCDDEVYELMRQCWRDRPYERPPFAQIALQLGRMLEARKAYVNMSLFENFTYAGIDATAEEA

B1: E3: human anti-Tie1 antibody from Fab phage library; HC SEQ ID NO:114, LC SEQ ID NO:116 (antibody, V domains shown)
VH: EVQLLESGGGLVQPGGSLRLSCAASGFTFSMYGMVWVRQAPGKGLEWVSVISPSGGNTGYADSVKGRFTISRDNSKNTLYLQVNSLRAEDTAVYYCARAPRGYSYGYYYWGQGTLVTVSSASTKGPSVFPLAPSSKSTSGG
VL: DIQMTQSPLSLSASVGDRVTITCRASQGIGHYLAWYQQKPGKVPKLLIYTASTLQSGVPSRFSGSGSGTDFTLTINSLQPEDVATYYCQQFNSYPHTFGQGTRLDIK
modifications: Synthetically generated peptide
For B1, the “effect of germlining on the affinity against Tie-1/Fc” value in assay [1] is “little or no effect on the affinity”. In addition, in assay [2] (E3 IgG 200 ng/ml), the “persistence of Tie1 phosphorylation” value is given as “up to 1 h” and the “time of highest Tie1 phosphorylation” value was 15 to 30 min. In assay [2] (HDMVEC, E3 500-1000 ng/ml), the “time of most prominent Tie1 phosphorylation” value is given as 5 min. The “concentration showing Tie1 receptor phosphorylation” value in assay [2] (HDMVEC, serum starved, stimulated 60 min) was in the range of 50 to 200 ng/mL. Also, in assay [2] (HDMVEC, response more rapid), the “higher concentrations inducing Tie1 phosphorylation” value is 500 to 1000 ng/mL. Besides, the “bFGF-induced angiogenesis in vivo” value in assay [3] (conclusion from the two experiments) was “can inhibit bFGF-induced angiogenesis in vivo”. The “vessel-like structures in MATRIGEL plugs (H&E staining)” value in assay [3] (first assay, day 7, bFGF 80 ng/ml, antibody 10 μg/ml in plug, E3 = germlined variant, IgG4) is given as “neither modification of the matrix nor organization of the cells”. Moreover, the “fluorescein-lectin staining of MATRIGEL plugs” value in assay [3] (second assay, eight days post-implantation, antibody 10 μg/ml in plug) was “no staining could be detected”.
